The record followed here is US20210318312A1 (TRUSTEES OF PRINCETON UNIVERSITY, published 2021).

Test [1] concerns the target T1, dihydrolipoyllysine acetyltransferase (DLAT), endogenous (human, UniProt P10515 87-647, lipoyl-lysine at K132 and K259).
T1 construct: Endogenous protein in mitochondrial lysates of MRC5 cells; also called E2 component of the PDHC
T1 sequence (looked up): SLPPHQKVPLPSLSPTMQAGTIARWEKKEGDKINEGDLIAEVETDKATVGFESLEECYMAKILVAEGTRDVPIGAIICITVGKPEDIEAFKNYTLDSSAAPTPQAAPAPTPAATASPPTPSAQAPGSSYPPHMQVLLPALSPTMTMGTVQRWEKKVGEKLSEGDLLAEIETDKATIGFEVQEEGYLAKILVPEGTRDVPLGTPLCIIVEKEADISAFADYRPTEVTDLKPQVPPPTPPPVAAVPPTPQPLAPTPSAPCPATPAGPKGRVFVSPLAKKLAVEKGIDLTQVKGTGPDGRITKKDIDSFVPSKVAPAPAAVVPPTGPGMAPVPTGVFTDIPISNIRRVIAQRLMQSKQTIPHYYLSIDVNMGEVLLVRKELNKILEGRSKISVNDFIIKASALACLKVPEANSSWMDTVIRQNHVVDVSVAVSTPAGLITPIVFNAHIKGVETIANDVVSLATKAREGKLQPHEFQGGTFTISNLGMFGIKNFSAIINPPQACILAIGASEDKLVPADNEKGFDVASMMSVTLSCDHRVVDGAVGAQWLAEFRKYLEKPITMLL
Description: anti-GFP immunoaffinity purification from MRC5 mitochondria, western blot; confocal co-localization. The method, then:
(§1) Western Immunoblotting. 10 μg of protein from each fraction was resuspended in L SDS Sample Buffer. Each sample was subjected to SDS-PAGE, transferred to nitrocellulose membranes (GE Healthcare Life Sciences, cat. #45-000-929), and blocked in blocked in 5% (w/v) skim milk powder in Tris-buffered saline with 0.05% (v/v) Tween-20 (TBST) for 1 hr at RT. Membranes were probed according to manufacturer's instructions, with the following primary antibodies: mouse anti-GFP (Roche, cat. #11814460001), rabbit anti-LAMP1 (Abcam, cat. #ab24170), rabbit anti-COXIV (Cell Signaling Technology, cat. #4844), rabbit anti-DLAT (Santa Cruz Biotechnology, cat. #sc-32925), or rabbit anti-PDHX (Santa Cruz Biotechnology, sc-98752), for 1 h in TBST, followed by 1 hr incubation in corresponding horseradish peroxidase (HRP)-conjugated secondary antibodies (Jackson ImmunoResearch Laboratories). All antibody incubations were carried out at RT with gentle agitation, and blots washed three times with TBST for 10 min after each incubation. Immuno-targets were detected using ECL (GE Healthcare Life Sciences, cat. #RPN2106).
(§2) Immunoaffinity Purification. SIRT4-EGFP and control EGFP immunoaffinity purifications (IPs) from MRC5 cells were performed using M270 Epoxy Dynabeads (Invitrogen, cat. #14302D) coupled with in-house generated rabbit anti-GFP polyclonal antibodies, as described previously²⁹. […]
(Immunoblotting shows a protein as a band on a membrane.)

Test [2] addresses T2, PDH component X (PDHX), endogenous (human, UniProt O00330 54-501).
T2 construct: Endogenous protein in mitochondrial lysates of MRC5 cells
T2 sequence (looked up): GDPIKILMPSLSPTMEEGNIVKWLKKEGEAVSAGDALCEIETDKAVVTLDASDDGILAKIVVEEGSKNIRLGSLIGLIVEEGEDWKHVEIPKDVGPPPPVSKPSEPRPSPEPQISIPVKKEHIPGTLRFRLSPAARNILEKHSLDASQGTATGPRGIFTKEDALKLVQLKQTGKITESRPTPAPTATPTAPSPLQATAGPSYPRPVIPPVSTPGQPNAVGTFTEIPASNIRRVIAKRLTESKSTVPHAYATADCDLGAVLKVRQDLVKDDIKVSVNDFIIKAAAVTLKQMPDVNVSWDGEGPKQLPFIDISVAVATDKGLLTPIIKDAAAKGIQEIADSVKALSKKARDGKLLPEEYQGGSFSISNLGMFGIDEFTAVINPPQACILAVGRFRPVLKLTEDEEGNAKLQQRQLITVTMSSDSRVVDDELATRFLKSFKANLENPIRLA
The description is as above. The procedure: as §1, §2

For test [3], the target named is T3, SIRT3, endogenous (human, UniProt Q9NTG7 102-399, limits assumed).
T3 sequence (looked up): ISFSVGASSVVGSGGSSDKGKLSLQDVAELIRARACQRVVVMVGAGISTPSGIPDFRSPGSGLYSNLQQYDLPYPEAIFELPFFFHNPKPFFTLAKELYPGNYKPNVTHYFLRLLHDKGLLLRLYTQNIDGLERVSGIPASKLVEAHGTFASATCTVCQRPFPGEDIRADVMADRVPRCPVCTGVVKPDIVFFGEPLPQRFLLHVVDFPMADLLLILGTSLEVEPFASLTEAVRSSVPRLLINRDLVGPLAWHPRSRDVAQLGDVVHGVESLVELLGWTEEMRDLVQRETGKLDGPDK
Description: immunoaffinity purification of SIRT4-EGFP from MRC5 mitochondria with mass spectrometry (IP-MS), SAINT scoring. The procedure: Immunoaffinity Purification. SIRT4-EGFP and control EGFP immunoaffinity purifications (IPs) from MRC5 cells were performed using M270 Epoxy Dynabeads (Invitrogen, cat. #14302D) coupled with in-house generated rabbit anti-GFP polyclonal antibodies, as described previously²⁹. Pooled mitochondria from fractions 3 and 4 from the OptiPrep™ gradient were resuspended in 1 mL optimized Lysis Buffer (20 mM HEPES-KOH, pH 7.4, 0.1 M KOAc, 2 mM MgCl₂, 0.1% Tween-20, 1 μM ZnCl₂, 1 μM CaCl2)), with 0.6% Triton X-100, 200 mM NaCl, and 1/100 (v/v) protease inhibitor cocktail (Sigma, cat. #P8340). Lysed mitochondria were vortexed three times for 20 sec each, and mixed by rotation for 10 min at 4° C. Insoluble material (pellet) was removed by centrifugation at 5000×g for 10 min. The supernatant was collected and SIRT4-EGFP or free EGFP (negative control) was immunoisolated by incubation with 7 mg of GFP-coupled magnetic beads for 60 min at 4° C. […]
To investigate potential endogenous substrates of SIRT4, proteomics was used to define its endogenous mitochondrial protein interactions. […] Using direct fluorescence microscopy (co-localization with MitoTracker, FIG. 4) and density-based organelle fractionation (co-isolation with the mitochondrial COX IV, FIG. 1a), we confirmed its mitochondrial localization. […]

Test [4] addresses T1, dihydrolipoyllysine acetyltransferase …. Description: reciprocal immunoaffinity purification of DLAT from wild-type fibroblasts, western blot (FIG. 1F).

B1: SIRT4-EGFP (enzyme)
chain: IGLFVPASPPLDPEKVKELQRFITLSKRLLVMTGAGISTESGIPDYRSEKVGLYARTDRRPIQHGDFVRSAPIRQRYWARNFVGWPQFSSHQPNPAHWALSTWEKLGKLYWLVTQNVDALHTKAGSRRLTELHGCMDRVLCLDCGEQTPRGVLQERFQVLNPTWSAEAHGLAPDGDVFLSEEQVRSFQVPTCVQCGGHLKPDVVFFGDTVNPDKVDFVHKRVKEADSLLVVGSSLQVYSGYRFILTAWEKKLPIAILNIGPTRSDDLACLKLNSRCGELLPLIDPC
notes: Stably expressed in MRC5 fibroblasts and immunoisolated from mitochondrial lysate with anti-GFP beads; also called SIRT4-OE; not shown: EGFP (enhanced green fluorescent protein, ORF of pEGFP-N1), fused C-terminal of SIRT4; linker
For the molecule B1, the binding result was “binds” in test [1], “binds” in test [2] and “no binding” in test [3].

B2: endogenous SIRT4 (enzyme)
chain: IGLFVPASPPLDPEKVKELQRFITLSKRLLVMTGAGISTESGIPDYRSEKVGLYARTDRRPIQHGDFVRSAPIRQRYWARNFVGWPQFSSHQPNPAHWALSTWEKLGKLYWLVTQNVDALHTKAGSRRLTELHGCMDRVLCLDCGEQTPRGVLQERFQVLNPTWSAEAHGLAPDGDVFLSEEQVRSFQVPTCVQCGGHLKPDVVFFGDTVNPDKVDFVHKRVKEADSLLVVGSSLQVYSGYRFILTAWEKKLPIAILNIGPTRSDDLACLKLNSRCGELLPLIDPC
notes: Endogenous SIRT4 of wild-type MRC5 fibroblasts
With B2, the binding result in test [4] was “binds”.
